Reference: US7374920B2, “Ginkgo biloba levopimaradiene synthase” (priority 2001, dated 2008)
Entries after “also recorded” stand apart in the source; their conditions may differ.

B1: Ala^2 (protein, listed as Ginkgo biloba)
chain: MAGVLFANLPCSLQLSPKVPFRQSTNILIPFHKRSSFGFNAQHCVRSHLRLRWNCVGIHASAAETRPDQLPQEERFVSRLNADYHPAVWKDDFIDSLTSPNSHATSKSSVDETINKRIQTLVKEIQCMFQSMGDGETNPSAYDTAWVARIPSIDGSGAPQFPQTLQWILNNQLPDGSWGEECIFLAYDRVLNTLACLLTLKIWNKGDIQVQKGVEFVRKHMEEMKDEADNHRPSGFEVVFPAMLDEAKSLGLDLPYHLPFISQIHQKRQKKLQKIPLNVLHNHQTALLYSLEGLQDVVDWQEITNLQSRDGSFLSSPASTACVFMHTQNKRCLHFLNFVLSKFGDYVPCHYPLDLFERLWAVDTVERLGIDRYFKKEIKESLDYVYRYWDAERGVGWARCNPIPDVDDTAMGLRILRLHGYNVSSDVLENFRDEKGDFFCFAGQTQIGVTDNLNLYRCSQVCFPGEKIMEEAKTFTTNHLQNALAKNNAFDKWAVKKDLPGEVEYAIKYPWHRSMPRLEARSYIEQFGSNDVWLGKTVYKMLYVSNEKYLELAKLDFNMVQALHQKETQHIVSWWRESGFNDLTFTRQRPVEMYFSVAVSMFEPEFAACRIAYAKTSCLAVILDDLYDTHGSLDDLKLFSEAVRRWDISVLDSVRDNQLKVCFLGLYNTVNGFGKDGLKEQGRDVLGYLRKVWEGLLASYTKEAEWSAAKYVPTFNEYVENAKVSIALATVVLNSIFFTGELLPDYILQQVDLRSKFLHLVSLTGRLINDTKTYQAERNRGELVSSVQCYMRENPECTEEEALSHVYGIIDNALKELNWELANPASNAPLCVRRLLFNTARVMQLFYMYRDGFGISDKEMKDHVSRTLFDPVA
B2: Ser^61: Ginkgo biloba levopimaradiene synthase truncated at Ala^60-Ser^61; amino acid sequence SEQ.ID.NO:35 (protein, listed as Ginkgo biloba)
chain: MSAAETRPDQLPQEERFVSRLNADYHPAVWKDDFIDSLTSPNSHATSKSSVDETINKRIQTLVKEIQCMFQSMGDGETNPSAYDTAWVARIPSIDGSGAPQFPQTLQWILNNQLPDGSWGEECIFLAYDRVLNTLACLLTLKIWNKGDIQVQKGVEFVRKHMEEMKDEADNHRPSGFEVVFPAMLDEAKSLGLDLPYHLPFISQIHQKRQKKLQKIPLNVLHNHQTALLYSLEGLQDVVDWQEITNLQSRDGSFLSSPASTACVFMHTQNKRCLHFLNFVLSKFGDYVPCHYPLDLFERLWAVDTVERLGIDRYFKKEIKESLDYVYRYWDAERGVGWARCNPIPDVDDTAMGLRILRLHGYNVSSDVLENFRDEKGDFFCFAGQTQIGVTDNLNLYRCSQVCFPGEKIMEEAKTFTTNHLQNALAKNNAFDKWAVKKDLPGEVEYAIKYPWHRSMPRLEARSYIEQFGSNDVWLGKTVYKMLYVSNEKYLELAKLDFNMVQALHQKETQHIVSWWRESGFNDLTFTRQRPVEMYFSVAVSMFEPEFAACRIAYAKTSCLAVILDDLYDTHGSLDDLKLFSEAVRRWDISVLDSVRDNQLKVCFLGLYNTVNGFGKDGLKEQGRDVLGYLRKVWEGLLASYTKEAEWSAAKYVPTFNEYVENAKVSIALATVVLNSIFFTGELLPDYILQQVDLRSKFLHLVSLTGRLINDTKTYQAERNRGELVSSVQCYMRENPECTEEEALSHVYGIIDNALKELNWELANPASNAPLCVRRLLFNTARVMQLFYMYRDGFGISDKEMKDHVSRTLFDPVA

Assay: in vitro enzymatic assay of levopimaradiene synthase constructs expressed in E. coli BL21(DE3)
Type: biochemical, Escherichia coli
Conditions: for diterpene product on bacterial expression: E. coli BL21(DE3), soluble lysate fraction, 20 μM GGDP, overnight at 32° C., GC and GC/MS
Procedure: The desired plasmids were prepared by ligating the mutated gene insert into the similarly digested vectors pET32c(+) (Novagen; Madison, Wis.) and pRS426GAL (Hua, 2000), a multiple copy yeast expression vector. These plasmids was expressed in E. coli BL21(DE3) (Novagen; Madison, Wis.). E. coli cells were grown in Luria-Bertani medium supplemented with 100 μg/mL ampicillin at 37° C. with shaking to OD600 ˜0.6. The following parameters were tested: isopropyl 1-thio-β-D-galactopyranoside (IPTG) concentration (50, 100, 250, 500, and 1000 μM); and temperature and time (20° C. for 2, 3, 4, 6, 21 hours, 22° C. for 6, 8, 16, 19, 22, 45 hours, and 30° C. for 3, 6 hours). The following assay conditions were tested to obtain maximum diterpene product yield: 30 mM HEPES (N-2-hydroxyethylpiperazine-N′-[…]), pH 6.9, 7.2, 7.6, 8.0; 30 mM Tris (tris(hydroxymethyl)aminomethane hydrochloride), pH 7.4, 7.8, 8.2; 1, 5, 10% glycerol; 1, 3, 5, 10, 20 mM DTT (dithiothreitol); 20 mM β-mercaptoethanol; 2, 5, 8% Triton X-100; 5% Tween 80; 0, 2, 7.5, 20, 50 mM MgCl2; 0, 30, 500, 1000 μM MnCl2; 2, 10, 13.3, 20, 40, 80, 200 μM GGDP; and 23° C. and 32° C. assay temperatures.
Optimal soluble protein production and diterpene yield were obtained with the following conditions. Cell cultures were induced with 1 mM IPTG at 20° C. with shaking for 6 hours and lysed by sonication in 30 mM HEPES, pH 7.2, 5 mM DTT, and 5% glycerol. The soluble fraction of the lysate (100 mg/mL) was incubated with 20 μM GGDP in 30 mM HEPES, pH 7.2, 5 mM DTT, 5% glycerol, 2 mM MgCl2, and 500 μM MnCl2 overnight at 32° C.
All in vitro reactions were extracted 3× with hexane and dried over MgSO4. The reaction was further extracted twice with diethyl ether and dried over MgSO4. Thereafter, the crude lysate was suspended in 100 mM Tris, pH 8.0 containing 2.9 units/mg apyrase (a dephosphorylating agent) and 10 units/μL calf intestinal alkaline phosphatase, incubated at 30° C. for 3 hours, and extracted with diethyl ether as noted above (Croteau and Cane, 1985). The crude reaction mixtures were eluted over SiO2, concentrated, and analyzed by GC and GC/MS.
Gas chromatography spectra were obtained on a Hewlett Packard 6890 Series GC System equipped with an Rtx-5 capillary column (Restek, 30 m×0.25 mm i.d., 0.10 μm df). The following separation conditions and temperature program were employed: injector port 250° C., FID 250° C., split ratio 39:1, helium flow 20 cm/s (0.6 mL/min), 150° C. hold 5 min, increase to 250° C. (5° C./min), hold 5 min. GC/MS spectra were obtained on a Hewlett-Packard 5890A instrument with a 30-m DB-5 ms column (J&W Scientific Inc., 0.25 mm i.d., 0.10 μm df). The following separation conditions and temperature program were employed: injector port 280° C., transfer lines: 280° C., helium flow at 30 cm/s (1 mL/min) with splitless injection at 150° C. hold 3 min, increase to 250° C. (5° C./min), hold 5 min. Mass spectra (m/z 50 to 500) were obtained on a VG ZAB-HF reverse-geometry double-focusing instrument at 70 eV with an electron-impact ion source (200° C.). Accelerating voltage was set to 8 kV and the resolution was 1000 (10% valley).
The skilled artisan recognizes that lysis and assay conditions should be optimized. Examples of parameters that can be adjusted to optimize conditions include altering buffer, pH, reductant, reductant concentration, metal cofactors, cofactor concentrations, glycerol concentrations, substrate concentrations, and assay temperatures. […] Maximum soluble protein production and diterpene yield were obtained with the following conditions. Cell cultures were induced with 1 mM IPTG at 20° C. with shaking for 6 hours and lysed by sonication in 30 mM HEPES, pH 7.2, 5 mM DTT, and 5% glycerol. The soluble fraction of the lysate (100 mg/1 mL) was incubated with 20 μM GGDP in 30 mM HEPES, pH 7.2, 5 mM DTT, 5% glycerol, 2 mM MgCl2, and 500 μM MnCl2 overnight at 32° C. […]

Molecule | diterpene product on bacterial expression | diterpene product on bacterial expression (listed as full-length cDNA) | difference in activity between highest (Ser^61) and lowest (Ala^2) levels (bacterial expression) | turnover of GGDP (bacterial expression, highest expression levels)
B1 | produced levopimaradiene as the exclusive diterpene hydrocarbon | provided enzymatic activity capable of cyclizing geranylgeranyl diphosphate to levopimaradiene | approximately 80% | 
B2 | produced levopimaradiene as the exclusive diterpene hydrocarbon; also recorded: provided enzymatic activity capable of cyclizing geranylgeranyl diphosphate to levopimaradiene |  |  | approximately 1%
